Data: PMC6499997, “SGIP1α functions as a selective endocytic adaptor for the internalization of synaptotagmin 1 at synapses” (Molecular Brain, 2019)

Molecular target: T1, Recombinant human GST-Syt1-C2AB domain (human, UniProt P21579 81-422)
T1 construct: human synaptotagmin 1, cytoplasmic C2AB domains (C2A and C2B); Construct was a gift (Dr. Namgi Lee); also called C2AB fusion protein; GST-fused cytoplasmic (C2AB) domains of Syt1; not shown: GST, N-terminal, kept
Assay: pull-down; GST fusion protein on beads incubated with cleared extracts of transfected HEK293T cells (1 mg at 1 mg/ml) for 4 h at 4 °C; lysis buffer 20 mM Tris-HCl pH 8.0, 137 mM NaCl, 2 mM EDTA, 1% Triton X-100; bound proteins detected by immunoblot for HA
Details: one partner purified

T1 sequence (P21579 81-422): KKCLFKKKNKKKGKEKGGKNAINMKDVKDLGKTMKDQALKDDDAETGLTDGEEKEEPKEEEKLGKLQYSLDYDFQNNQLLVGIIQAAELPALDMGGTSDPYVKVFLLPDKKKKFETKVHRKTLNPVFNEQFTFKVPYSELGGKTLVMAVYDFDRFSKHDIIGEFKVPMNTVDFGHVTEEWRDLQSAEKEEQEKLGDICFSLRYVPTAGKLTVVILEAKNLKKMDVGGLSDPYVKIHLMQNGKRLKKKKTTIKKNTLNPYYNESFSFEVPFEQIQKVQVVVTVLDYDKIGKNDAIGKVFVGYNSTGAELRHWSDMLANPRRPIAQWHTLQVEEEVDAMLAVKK

B1: HA-SGIP1α-mut (W771A/K781A) (natural protein, mouse, UniProt Q8VD37-6 1-854, looked up)
chain: MMEGLKKRTRKAFGIRKKEKDTDSTGSPDRDGMQGKKKAQKTQLLLTSCFWLRALSLTLSQQPSPHEPPYHSKAECAREGGKKASKKSNGAPNGFYAEIDWERYNSPELDEEGYSIRPEEPGSTKGKHFYSSSESEEEEESHKKFNIKIKPLQSKDVLKNAATVDELKASIGNIALSPSPVRKSPRRSPGAIKRNLSSEEVARPRRSTPTPELTSKKPLDDTLALAPLFGPPLESAFDEQKTEVLLDQPEIWGSGQPMNPSTESPELARPFPTGTPPPLPPKTVPATPPRTGSPLTVATGNDQAATEAKIEKLPSISDLDSIFGPVLSPKSVAVNTEEKWVHFSDASPEHVTPELTPREQVVTPPAASDIPADSPAPAPPGPTGSAGPPGPPGPRHVPSPLNLEEVQKKVAEQTFIKDDYLETLSSPKECGLGQRATPPPPPPPTYRTVVSSPGPGSGSGTGTTSGASSPARPATPLVPCSTTPPPPPPRPPSRPKLPPGKPGVGDVSRPFSPPIHSSSPPPIAPLARAESTSSISSTNSLSAATTPTVENEQPSLVWFDRGKFYLTFEGSSRGPSPLTMGAQDTLPVAAAFTETVNAYFKGADPSKCIVKITGEMVLSFPAGITRHFANNPSPAALTFRVVNSSRLEHVLPNPQLLCCDNTQNDANTKEFWVNMPNLMTHLKKVSEQKPQATYYNVDMLKYQVSAQGIQSTPLNLAVNWRCEPASTDLRIDYKYNTDAMSTAVALNNVQFLVPIDGGVTKLQAVLPPAVANAEQQRILWAIPDISQKSENGGVGSLLARFQLSEGPSKPSPLVVQFTSEGSTLSGCDIELVGAGYRFSLIKKRFAAGKYLADN
notes: numbers count on: SGIP1α (NM_001285852.1); Made by site-directed mutagenesis; also called HA-SGIP1α mutant W771A/K781A; W771A/K781A mutant; source: HEK293T, transfected, in lysate
  relative band intensity (SGIP1α = 1): 0.2 relative to SGIP1α
